Data on four molecules can be found in patent US20240002500A1 (GUANGDONG FAPON BIOPHARMA, published 2024).

Positions count from the first letter of the chain named.

Assay [1] addresses T1, hTIGIT-hFc (human, UniProt Q495A1 22-141).
T1 construct: also called antigen protein hTIGIT-hFc; human TIGIT recombinant protein carrying a human Fc tag; not shown: human Fc tag
T1 sequence (looked up): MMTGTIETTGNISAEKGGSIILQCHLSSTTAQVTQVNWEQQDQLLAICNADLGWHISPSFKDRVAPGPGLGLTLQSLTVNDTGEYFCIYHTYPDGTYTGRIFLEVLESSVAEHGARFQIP
The assay is described as follows: FACS blocking on CHO-hCD112 cells; span of the fitted curve, unit from the y axis. On the procedure:
(§1) The CHO-engineered cell CHO-hCD112 cells recombinantly expressing full-length human CD112 were counted; centrifugated at 300 g for 5 min; resuspended with an FCM buffer; and cell density was adjusted to 4E+06 cell/mL for later use. […] According to an experimental design, in each well, 50 μL of the antigen protein and 50 μL of the cell (the volume of each cell added into a 96-well V-shaped plate being 2E+05 cell/well) were respectively added in the 96-well V-shaped plate; and incubation was performed in dark on ice for 30 min. Centrifugation (300 g/5 min) was performed; supernatant was discarded; 200 μL of the FCM buffer was added for washing once; centrifugation (300 g/5 min) was performed; and the supernatant was discarded. The antibody was added to the 96-well V-shaped plate (in 100 μL/well); and incubation was performed in dark on ice for 30 min. Centrifugation (300 g/5 min) was performed; supernatant was discarded; 200 μL of the FCM buffer was added for washing once; centrifugation (300 g/5 min) was performed; and the supernatant was discarded. Secondary antibodies (APC anti-human IgG Fc, 1:500 dilution) were added to the 96-well V-shaped plate (in 100 μL/well); and incubation was performed in dark on ice for 30 min. Centrifugation (300 g/5 min) was performed; supernatant was discarded; 200 μL of the FCM buffer was added for washing once; centrifugation (300 g/5 min) was performed; and the supernatant was discarded. 100 μL of the 1×PBS was added for resuspending, and on-machine detection was performed.

Assay [2] addresses T2, human Tigit extracellular domain recombinant protein hTigit-his (Acrobiosystem, Cat.TIT-H2H3) (human, UniProt Q495A1 22-141).
T2 construct: extracellular domain; Bought; not shown: his tag
T2 sequence (looked up): T1 sequence (looked up)
The assay is described as follows: BLI epitope binning (ForteBIO QKe), hTigit-his on anti-Penta-HIS sensor; competitor R0223. The protocol: Epitope competition analysis was performed on an anti-human TIGIT antibody with an MD ForteBIO QKe platform. An experimental method included: a human Tigit extracellular domain recombinant protein hTigit-his (Acrobiosystem, Cat.TIT-H2H3, lot-1336-76GF1-F9) carrying a his tag was diluted with an equilibration buffer (1×PBS+0.02% Tween 20), until the final concentration was 1.5 μg/ml. The anti-human Tigit antibody was diluted with the equilibration buffer (1×PBS+0.02% Tween 20), the final concentration being 5 μg/ml. After an anti-Penta-HIS biosensor (ForteBIO, Cat. 18-5122) was fully hydrated, first the hTigit-his recombinant protein was solidified for 180 seconds, then equilibrated for 30 seconds, and bound to the first anti-human Tigit antibody for 180 seconds, then equilibrated for 30 seconds, and then bound to the second anti-human Tigit antibody, binding time being 300 seconds. The whole reaction was performed at 25° C. and 1000 rpm; and finally, Octet analysis software was used to perform epitope binning analysis.

For assay [3], the target named is T1, hTIGIT-hFc. The assay is described as follows: FACS blocking on U2-OS cells; second row of the table; unit from the y axis. On the procedure:
as §1, with “U2-OS” for “The CHO-engineered cell CHO-hCD112”, “to be detected (human osteosarcoma cells, naturally and highly” for “recombinantly”, “PVR and” for “full-length human”, “CD112 by means of detection)” for “CD112”

Assay [4] deals with T1, hTIGIT-hFc. The experiment in a line: FACS blocking: hTIGIT-hFc bound on CHO-hCD112 cells, then antibody, APC anti-human IgG Fc; blocked partner CD112; unit from the x axis Log[µg/mL]. On the procedure:
as §1

B1: 3Tigit-16 mouse monoclonal antibody (antibody, V domains shown)
VH: EVQLQQSGPELVKPGASVKMSCKASGFTFTDYFMDWVKQSRGASFEWIGRLNPNNGRTSYNQKFKGKATLTVDKSSSTAYMELNSLTSEDSAVYYCARGDLGRWYFDVWGAGTTVTVSS
VL: QIVLTQSPAIMSASPGEKVTMTCSASSSVSYMHWYQQKSGTSPKRWIYDTSKLASGVPTRFSGSGSGTSYSLTISSMEAEDAASYFCQQWSSNSLTFGAGTKLELKR
notes: Mouse monoclonal antibody from hybridoma
For B1, in the assay with hTIGIT-hFc [1], the Span came out at 215 MFI-APC. Further, in assay [2], the “epitope binning signal (name and unit not given)” value was determined as 0.008. Besides, in the assay with hTIGIT-hFc [3], the “Span (row head not given)” value was determined as 580 MFI-APC. Besides, in the assay with hTIGIT-hFc [4], inhibition was half-maximal at 0.265 µg/mL (IC50).

B2: 3Tigit-29 mouse monoclonal antibody (antibody, V domains shown)
VH: EVQLQQSGPELVKPGASVKISCKASGYTFTDYNMHWVKQSLGKSLEWIGYVNSFNGNTGYSQKFKSKVTLTVDRSSRTAYMDLRSLTSEDSAVFYCARSSRGGFAYWGQGTLVTVSA
VL: B1 VL with T59A, G65V, S84T, F86Y
notes: as for B1
The molecule B2 came in with a Span with hTIGIT-hFc [1] of 327 MFI-APC. Moreover, in assay [2], the “epitope binning signal (name and unit not given)” value is -0.0018. For the same molecule, the “Span (row head not given)” value with hTIGIT-hFc [3] worked out at 585 MFI-APC. This molecule showed an IC50 with hTIGIT-hFc [4] of 0.196 µg/mL.

B3: Tigit-5 mouse monoclonal antibody (antibody, V domains shown)
VH: QVQLQQPGAELVRPGASVKLSCKASGYSFTSYWMNWVKQRPGQGLEWIGMIRPSDSETRLNQMFKDKATLTVDKSSSTAYMQLSSPTSDDSAVYYCAGIHDYGHGAYWGQGTLVTVSA
VL: DIQMIQSPASLSVSVGETVTITCRASENIYSNLAWYQQKQGKSPQLLVYAASHLPDGVPSRFSGSGSGTQYSLKINSLQSEDFGSYYCQHFWGTPRTFGGGTKLEIKR
notes: as for B1
Turning to B3, the Span with hTIGIT-hFc [1] worked out at 212 MFI-APC. Further, the “epitope binning signal (name and unit not given)” value in assay [2] was found to be 0.0443. The same molecule returned an IC50 in the assay with hTIGIT-hFc [4] of 0.143 µg/mL.

B4: 3Tigit-12 mouse monoclonal antibody (antibody, V domains shown)
VH: QVQLQQSGAELVRPGTSVKMSCKAAGYTFTNYWIGWVKQRPGHGLEWIGDIYPGGGYTNYDEKFKGKATLTADTSSRTAYMQLSSLTSEDSAIYHCVNGGYGSTYGYFDVWGAGTTVTVSS
VL: DIVMSQSPSSLPVSVGEKVTMSCKSSQSLLFSSDQKNYLAWYQQKPGQSPKLLIYWASTRESGVPDRLTGSGSGTDFTLTISSVKAEDLAVYYCQQYHKYPFTFGGGTKLEIKR
notes: as for B1
In turn, B4 displayed a Span with hTIGIT-hFc [1] of 278 MFI-APC. In addition, in assay [2], the “epitope binning signal (name and unit not given)” value worked out at 0.01. The “Span (row head not given)” value with hTIGIT-hFc [3] was found to be 555 MFI-APC. In the assay with hTIGIT-hFc [4], this molecule yielded a 50% inhibitory concentration (IC50) of 0.191 µg/mL.
